Experimental findings from a protein production outcome set (Wang et al. 2014) are described below.
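Also: failed if final PepcDB status was selected cloned or expressed and not failed if soluble or beyond.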

The series in a line: label from the status in PepcDB records.
Consider “MQEEWNPLMKNRCIIWLVTGICLTVIFQFPLKSVASSADKYANFAELAEHETEGEDYQIEYTDMGTELLILSPHGGGIEGGVSELVRAFSADYSTYLFEGIKPSQNWDLHITSNHFDEPQALKAVKEHSYVLAFHGYHDIVEHTLVGGTDTGGAKAIVRALLNKGFSAELVSPSHRLAGGNPENINNQCKTGQSIQLEISTPQREAFFSEFGLWTRASSKNETFQAYVSAVKEVLETRYK”, for which the protein production result is listed as “failed”.
As to “MLNVIHALFFRELKTRFGKNRYLGYIWVVGEPMSVVLLVTIIGTVIREYHHQVMPEGISIFMFLISGIMPFFMFRSIVTQLMNGIGANLSLFAYKPVKPIHVFIARTLLEFCIYFVIFITVLFFAGWFFRLDVFPVHLLGVLFCIFLLICSAFALGICFAIVWHFVESLRTLLAYFSIVFYWSSGIIFPTWLTPRPLLDIFYYNPLLHIFELLRFNFFENYPLQDEYSYFYAIFWILLVLFIGLFIYYYNRQALTAAKKE”, the protein production result is given as “failed”.
The result for “WKTGGRFLTLGVTLIMFIIVSNFLGLPFMYSATEAGEHIAWWRSPTSDPAVTLTLAVMVVTLTHYYGIKMKGTKEYVKGYFQPMKFLFPLKVIEEFANTLTLGLRLFGNIYAGEILLGLLAKLGGASFLGALGALVPMLAWMGFSVFVGSIQAFIFVMLTMVYMAHKVSHDH” reads “failed”.
“MLDSHLHPRLKPLLNAVAGALDRPGISPDGLTLVGFAIGVLALPFLALGWYGAALAAILLNRLLDGLDGALARRRGLTDAGGFLDIALDFLFYALVPFGFILADPLNNALAGGWLLFAFIGTGSSFLAFAALAARHQIANPGYAHKSLYYLGGLTEGTETILLFVLGCLFPAHFAWLAWLFGALCWLTTATRICSGYQTLKRVTTTA”: the protein production result was “failed”.
The value for “MLKVFAMEMKDAKLYGGIGAILQLVGPFVPSIGFILALVGLVLVFLAVKTISEKSGDEGIFNNYLKAFIAQILGIIIFVGIIVATIGTAILKGGMGKLANPMEFMSLIGTILLGFIILWIFYTVAGYFKKKSYENSQYTGTDMFKTAGLLFFIGAILIILGIGVLIILIAEILEIVAFFSLPETSESAPVSA” was “failed”; that for “GSSGSSGMTPLVKDIIMSSTRMPALFLGHGSPMNVLEDNLYTRSWQKLGMTLPRPQAIVVVSAHWFTRGTGVTAMETPPTIHDFGGFPQALYDTHYPAPGSPALAQRLVELLAPIPVTLDKEAWGFDHGSWGVLIKMYPDADIPMVQLSIDSSKPAAWHFEMGRKLAALRDEGIMLVASGNVVHNLRTVKWHGDSSPYPWATSFNEYVKANLTWQGPVEQHPLVNYLDHEGGTLSNPTPEHYLPLLYVLGAWDGQEPITIPVEGIEMGSLSMLSVQIG” was “not failed”; that for “METVFALCAIMLLAFNLLGIVLAGWRLTRRDAENDLVRQKPPVSLVVPLRGVENFTPLTLSRAFGLDWPDYELLFCVADEFDPVIAEVRKAAAAFPSVSMQLLIGDDRVSANPKLNNCVKGWRAAKYEWVILADSNVLMPKSYIATMMSAWRPDSGLVCSPPLGSRPVGFWANVECAFLNGSQGRWQYAAEAIGIGFAQGKSMLWNKPFLEDRGGIRALAAEIAEDAASTKLVRSAGRKVHLVSAPFEQPLGQRHAGEIWSRQTRWARLRRVTFPQYFAPEILTGALPPLLFALAATAMMDVNLAATASVVLALMFGPELALAALNGWPVSLYTLPAMIARDLIMPVVWARSWIGSAVAWRGNVMTIGTAESTLAGPPAE” was “failed”.
As to “MSNVAQYKDGTYIGKAQGKAAEVEVTVSIKEGKIANAEVLKHGDTEAMMLSATDQIVPELIEKQDINKVDAVTGATLSSQGVINAVKQALEQAKVTPLEHHHHHH”, the protein production entry is on record as “not failed”.
The result for “MHIPENLYVVGTMNIADRSLALVDLALRRRFAFVGLEPRLGQVWRDWVVKECAVDPGLVADIERRIAELNDQIAADARLGKQFRIGHSYVTPAHRLEAGDTKKWFLQVVETEIGPLLDEYWFDAPDEAQKAIARLTQGLEHHHHHH” reads “failed”; that for “QIKIRKATKEDWEKIYQLYNSLSDEDLYLRFFHLYRITEEDAKKIASNEDHVTFLAEVDGKVVGEASLHKDGEFSLVVHRNYRTLGIGTLLVKTLIEEAKKSGLSTVKFYTLPENTPMIKIGRKLGFKMRFYEDEVYGEMRL”, “not failed”.
The result for “LNKEGEVERLLGINMDMTEVKQLNEALFQEKERLHITLDSIGEAVVCIDMAMKITFMNPVAEKMSGWTQEEALGVPLLTVLHITFGDNGPLMENIYSADTSRSAIEQDVVLHCRSGGSYDVHYSITPLSTLD” reads “failed”; that for “MTDEIISYQKAKLAKNLAISTASKWLFVHSSTGGSATNLSIAQYATLINGIQSAIKCQVILTAGKGERERAVELAEKLTDQNVVIYDKNDGLADFTRSLACADLFIAGSTGPLHIAGGLNIPTVGFYPSRLSATPRRWRPINQVDKHLAFCPPSGKQCEMDLTLISIEQALTSVIPFIKKMWQLSLEHHHHHH”, “not failed”; that for “MNMLIDISTEILMSLLFFYLFYRIMVKGTNGVIEILVEAMMFSMFVGLILYFQTRITFTTASMAVDMPMAIMGGAVAWAYFTRNSSMTTSRKSAFISLLISNEVAMAYFLTIITYPNIISHGVFYTLVHSVSSYLFIASMEIEMILSLLFLEKDSIKKIVFSGVVFSGLFNPFFMPQSNFSLYGTIYFTAVMVFFMAILFEIIAVKFDTMNFGKIVMITLFFGLMGFSAAGLFASIVFGSLITLLLFDISMMAQMAFYFYFLFRNTEIRGRPGWSYNRYSMFYVLLFSFAAEWLASASIISVVNGVNGVVPFLSNFGVGVYSGIVPAILNAIFIFGSVTNSYVFLIIMGVEMASLVIVRIGRLRWKEKNGISHSP”, “failed”.
The value for “VGSVLEIKDPENLKNLGSLIGEEIAKLHQALNSVNSNNELVKRELYKLVYEWALPNLEKNEHVDQDVVRTMNQIHSDFKKTITSLRKQIIHRDMHLSNVIFKDNEFQGFIDFELLERNVRVFDLCYCCTSILSELHSDEELRGKWQHIISKIFEGYNKQSILTREELQAIWYVMLSIQVIFITYFVQLPDLLKLNEEMFF” was “failed”; that for “HEHPTSAGGDGGAGTGAVGTHDGSAAAAAAAAALPSISGARGHAGPEGGHDNDMGGMDASGGGGGGGYGRLPGLAAQSSMASVDGDEASLPPIANLSLGKANMTGSTVGGAAHASTRRSTLNTYYEPGAGGGGGTGGAGGGGGGAGPGPAGYGKVAKAAAVGGAGSVAGGGGVVGGAGVGGGGAVGSGTVGRRQSVGVVVGKYGSVNKQASQGHGGGGPGVAGAAGMAVTGGHAGGGVGGGGGGAVGVGGVGVNKYKANVGKTNSKYISPYSLRQLAG” was “failed”; that for “MAGGGNRRDEGSITIQSTNLFAALDTRKKKKKSDKAGKSKGSSKSREPEKEPEPQVYWAPTPLKVKSWADIDDEDDDDDYYATTAPPQSGWSTSLPSHTDSKDVHVEESESEEDILDEGDDDVEEEQEQETEVQVHPEPEVKKAPEVPAPPKEAERQLSKKERKKKELAELEALLADFGVAPKENNGLEESQEAGQEKKEDVNGEGEKKENAAGGESKASKKKKKKDKQKEVKESQEQQANNNADAVDEAAGSEPTEEESPIDVKERIKKLASMKKKKSGKEVDAAAKAAAEEAAARRKKLAAAKKKEKNHYNQQPVR” was “failed”.
As for “MADWLIGLIMGAVEGLTEFLPVSSTGHMILTGHLIGFDDERAKVFEVVIQLGSILAVVVIFWKRLWSLVGIGKVTDGPSLNLLHIIIGMIPAGVLGVLFHSTIKEGLFGPGPVVISLVAGGILMIVAEKFSKPSTARTLDEITYKQAFTIGMFQCLALWPGFSRSGSTISGGLLARVSHTAAAEYTFILAVPMMVAASGLDLIKSWDVLSSADITLFVTGFVTAFVVAMLAIVSFLKLLSRVKLTPFAYYRFILAAVFYFFIM”, the protein production entry was “failed”.
“HPEKCSECSYSCSSKAALRIHERIHCTDRPFKCNYCSFDTKQPSNLSKHMKKFHGDM”: the protein production entry is on record as “not failed”.
As for “MLYLKRILIVGLSFVVGLINIIGNNYTVFALEKNTLVHQNVMSMIQSQRGGLFDPIYTESLEDNWQGDYIYYGEDTDGSALKWQLLDSDNKDFSKNANSTMFLFSDKTIGTSFWYRENDYGFDYSNVKPGETPIYWQKGYEWDKSDLKTNMEDEMKNKFSSIENEGIIFSSKSSEDAQNVAVGLEKLGTTEMTASKWFPLSIQELTNKCYGFSSVPFNRNQAPLGLHTGDKSRVSSDDKNYLIRSYEEHWTKPMENGMRYHPVFVLNSNSVYGANCAGGLNYGNMYTVQSMRPAMNIDTSKVMLVKSHNQKEIIGIKAVNDSKTNEFKLTLLDDKQKLNIENIKTERDKITFDFEAIGNGKYLSVVVQDENNNVMYYGNIKDNLDKVNVGTMTIDLNQIGLNSKSFSSGEYKLSIFTEQLNFDKKTDYSSKFVDVEVVQNNVPPAVINKVPTIVAEDKVLTVGDTFDPLKDVTAYDNEDGIIKLTEANIAANDVNTNKEGTYNVTYKVTDKQGASSTKTITIDVIERIVIPENKPVDKTNNDTNSSNSSKVPQTGDINNIGVLAVTLMMSGSIVIGCNRKKSKANSLSEK”, the protein production result is on record as “failed”.
The result for “SPKMDVHETDHEVILECDIPGLESKEDLQIDVEPRSVRIEGRIKRSKEVHDERFYRREREIGHFRRVVPLPAEVAEDDIRAAYRNGVLEVRMRKRLDDRRRTIDVEFH” reads “failed”; that for “MASVKLPWDLEEEILSRLPPRSLVRFRTVCKHWNGLFSDKRFVKKHLVRARPQFIFLTESKKMYSIEIDLGGTIEVREVPYDFHCQPMKKNFTTIMACDGLLFRDFWKQGVAVWNPWLRQVGWIEYEDKGFRFCGVGYDSCKPDKCYKILGYFNCTRRLSDSLQEGYYQAAIYECASQAFKFIDTPNPFNLWPNKDPLSVNGNLYWLAHNHPETLEYFIETFDFSMEIFKPFCLLPCRKDFGSNELVLAVFKEDRFSLLKQCFETTKIEIWVTKMKIDREEEVVWIKFMTLPTTNLPNLDDTYCCSSYFIFDKTIIMCCGDYKTGATCIYMVRGDMFKKIQINSGIFQFSYCVYLPNLISVPFESHQV”, “failed”; that for “MMTGRKRGMIMSRRIITIGRQYGSNGRRIAKKLSEKLGIHYYDKELIKLASEQNDISYDELVKVDEKRANPWRYPVEDPAQMESRFRFEPMNDVLFYTQAQIITRLADTEDCIIVGRCANDILKSRPTSRSIFIHAPLDYRLQTVMERTSLEEKEALSLIKKVDKQRKFYYNYYTDKKWEEMSQYDLCLDSSAMSEDEILNVLTALYESIL”, “failed”.
The result for “MKKLLFAIDDTEACERAAQYILDMFGKDADCTLTLIHVKPEFMLYGEAVLAAYDEIEMKEEEKAKLLTQKFSTFFTEKGINPFVVIKEGEPVEMVLEEAKDYNLLIIGSSENSFLNKIFASHQDDFIQKAPIPVLIVK” reads “not failed”; that for “MDPLLVTVITTCGKVFQFHVDRRRNVGYLKKRISKEGKGFPEVDDQEILFKGEKLDDNRIIDGICKDGNSVIHLLVKKS”, “not failed”.
“MEEGKMDENEWGYHGEGNKSLVVAHAQRCVVLRFLKFPPNRKKTSEEIFQHLQNIVDFGKNVMKEFLGENYVHYGEVVQLPLEFVKQLCLKIQSERPESRCDKDLDTLSGYAMCLPNLTRLQTYRFAEHRPILCVEIKPKCGFIPFSSDVTHEMKHKVCRYCMHQHLKVATGKWKQISKYCPLDLYSGNKQRMHFALKSLLQEAQNNLKIFKNGELIYGCKDARSPVADWSELAHHLKPFFFPSNGLASGPHCTRAVIRELVHVITRVLLSGSDKGRAGTLSPGLGPQGPRVCEASPFSRSLRCQGKNTPERSGLPKGCLLYKTLQVQMLDLLDIEGLYPLYNRVERYLEEFPEERKTLQIDGPYDEAFYQKLLDLSTEDDGTVAFALTKVQQYRVAMTAKDCSIMIALSPCLQDASSDQRPVVPSSRSRFAFSVSVLDLDLKPYESIPHQYKLDGKIVNYYSKTVRAKDNAVMSTRFKESEDCTLVLHKV”: the protein production result is reported as “failed”.
